Test results reported in patent US20050095678A1.

Target: rat α1B+β1b calcium channel (N-type calcium channel α1B subunit coexpressed with β1b subunit) (rat) (UniProt Q02294)
Test: cell-based or functional assay

Chain of rat α1B+β1b calcium channel (N-type calcium channel α1B subunit coexpressed with β1b subunit) (rat) (Q02294 whole entry, chain 1 of 2): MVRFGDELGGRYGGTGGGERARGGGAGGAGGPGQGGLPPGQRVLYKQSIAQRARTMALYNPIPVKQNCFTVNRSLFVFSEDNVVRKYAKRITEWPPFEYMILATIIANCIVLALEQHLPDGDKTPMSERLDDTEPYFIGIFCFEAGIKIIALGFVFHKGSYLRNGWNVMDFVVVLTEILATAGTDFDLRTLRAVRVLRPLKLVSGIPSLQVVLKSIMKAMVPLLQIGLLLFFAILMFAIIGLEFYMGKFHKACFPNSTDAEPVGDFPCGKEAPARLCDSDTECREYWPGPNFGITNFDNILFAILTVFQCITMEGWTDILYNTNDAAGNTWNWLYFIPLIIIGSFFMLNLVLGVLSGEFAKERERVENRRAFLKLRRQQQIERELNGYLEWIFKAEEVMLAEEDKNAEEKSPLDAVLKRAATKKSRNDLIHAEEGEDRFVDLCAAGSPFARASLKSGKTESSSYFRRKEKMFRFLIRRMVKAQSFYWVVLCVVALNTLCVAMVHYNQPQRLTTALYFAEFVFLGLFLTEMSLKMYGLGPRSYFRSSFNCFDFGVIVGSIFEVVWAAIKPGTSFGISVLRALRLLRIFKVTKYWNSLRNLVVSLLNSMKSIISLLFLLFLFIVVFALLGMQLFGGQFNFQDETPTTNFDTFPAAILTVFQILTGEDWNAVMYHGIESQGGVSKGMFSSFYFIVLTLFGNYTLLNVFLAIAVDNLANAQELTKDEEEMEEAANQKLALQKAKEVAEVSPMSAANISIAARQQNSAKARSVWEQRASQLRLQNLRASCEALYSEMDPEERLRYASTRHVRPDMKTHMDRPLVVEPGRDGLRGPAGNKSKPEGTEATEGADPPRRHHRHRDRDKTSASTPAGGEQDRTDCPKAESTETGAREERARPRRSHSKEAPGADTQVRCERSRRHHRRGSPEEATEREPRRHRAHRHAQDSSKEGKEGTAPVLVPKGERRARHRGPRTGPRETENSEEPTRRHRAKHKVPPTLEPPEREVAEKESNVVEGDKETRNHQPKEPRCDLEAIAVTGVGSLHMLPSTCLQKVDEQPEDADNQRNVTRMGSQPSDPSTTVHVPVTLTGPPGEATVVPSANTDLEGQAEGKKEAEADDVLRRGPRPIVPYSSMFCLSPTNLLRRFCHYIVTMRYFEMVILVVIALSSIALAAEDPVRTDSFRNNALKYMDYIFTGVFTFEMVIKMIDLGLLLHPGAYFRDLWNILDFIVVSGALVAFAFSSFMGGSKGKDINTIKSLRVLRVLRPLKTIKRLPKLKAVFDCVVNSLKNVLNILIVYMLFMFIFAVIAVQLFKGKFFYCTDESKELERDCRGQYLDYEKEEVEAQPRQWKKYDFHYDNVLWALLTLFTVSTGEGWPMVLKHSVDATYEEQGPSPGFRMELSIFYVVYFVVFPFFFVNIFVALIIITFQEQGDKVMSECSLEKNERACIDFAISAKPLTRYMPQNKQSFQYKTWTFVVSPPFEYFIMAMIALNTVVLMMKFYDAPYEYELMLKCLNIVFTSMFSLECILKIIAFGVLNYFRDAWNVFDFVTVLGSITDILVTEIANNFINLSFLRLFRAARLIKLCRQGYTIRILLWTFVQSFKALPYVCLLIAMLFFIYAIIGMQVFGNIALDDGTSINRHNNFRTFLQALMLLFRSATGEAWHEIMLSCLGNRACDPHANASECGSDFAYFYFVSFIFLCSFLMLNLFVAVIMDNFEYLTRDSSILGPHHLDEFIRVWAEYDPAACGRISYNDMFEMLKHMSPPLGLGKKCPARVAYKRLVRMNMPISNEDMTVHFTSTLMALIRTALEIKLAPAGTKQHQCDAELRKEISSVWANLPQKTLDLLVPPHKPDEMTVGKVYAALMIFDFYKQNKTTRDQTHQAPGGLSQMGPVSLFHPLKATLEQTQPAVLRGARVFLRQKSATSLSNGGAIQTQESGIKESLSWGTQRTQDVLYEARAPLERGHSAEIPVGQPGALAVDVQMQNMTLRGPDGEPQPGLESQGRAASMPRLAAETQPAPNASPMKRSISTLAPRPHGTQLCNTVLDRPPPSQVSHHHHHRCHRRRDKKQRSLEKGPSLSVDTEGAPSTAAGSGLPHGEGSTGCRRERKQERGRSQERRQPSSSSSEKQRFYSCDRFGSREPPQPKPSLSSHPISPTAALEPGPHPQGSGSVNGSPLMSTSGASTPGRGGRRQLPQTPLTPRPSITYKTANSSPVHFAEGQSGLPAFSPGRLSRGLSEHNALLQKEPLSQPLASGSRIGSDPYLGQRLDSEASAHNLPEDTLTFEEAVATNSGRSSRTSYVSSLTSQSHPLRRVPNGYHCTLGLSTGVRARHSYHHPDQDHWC
Chain of rat α1B+β1b calcium channel (N-type calcium channel α1B subunit coexpressed with β1b subunit) (rat) (P54283 whole entry, chain 2 of 2, further chain): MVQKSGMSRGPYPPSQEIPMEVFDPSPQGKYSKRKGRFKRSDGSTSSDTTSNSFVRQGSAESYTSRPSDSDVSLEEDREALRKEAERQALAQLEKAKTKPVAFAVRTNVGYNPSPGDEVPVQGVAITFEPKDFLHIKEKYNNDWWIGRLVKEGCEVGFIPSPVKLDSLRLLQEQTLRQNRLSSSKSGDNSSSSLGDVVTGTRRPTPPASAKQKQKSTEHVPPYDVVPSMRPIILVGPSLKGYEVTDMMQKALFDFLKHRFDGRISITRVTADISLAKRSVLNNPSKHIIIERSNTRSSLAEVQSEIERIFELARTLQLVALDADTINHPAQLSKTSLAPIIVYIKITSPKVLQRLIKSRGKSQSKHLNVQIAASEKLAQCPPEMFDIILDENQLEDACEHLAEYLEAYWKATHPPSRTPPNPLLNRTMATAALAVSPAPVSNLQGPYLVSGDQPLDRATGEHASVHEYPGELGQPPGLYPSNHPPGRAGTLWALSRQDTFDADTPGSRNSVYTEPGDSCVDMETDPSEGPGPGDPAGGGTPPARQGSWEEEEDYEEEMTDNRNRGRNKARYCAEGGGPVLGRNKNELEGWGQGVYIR

average current density (Ipeak/cell capacitance), whole-cell patch clamp, fold increase on coexpression: 4 fold
Substance: rat brain α2δ-2 calcium channel subunit (from UniProt Q8CFG6 19-1157)
